Assay results published in patent US20240368223A1 (KAGOSHIMA UNIVERSITY, published 2024).
Blank lines part the entries; values can stand above or below the binder they belong to. Bridges are numbered along the chain shown (N, C = ends). Where no end group is shown, it is not given here. [ ]: non-standard residue; d: D form. hCys = N[C@@H](CCS)C(=O)O

Assays:
[1] = molecular target: T1, human IgG Fc (human, UniProt P01857-1 108-330 = IgG part); test: X-ray crystal structure of the Fc/peptide complex
T1 construct: domain: Fc; also called human IgG1 Fc
Description: 70 μL of the crystallizing agent was dispensed thereto as a reservoir solution. The plate was hermetically sealed using PowerSeal CRISTAL VIEW (manufactured by Greiner Bio-One Co., Ltd.) and then left standing for approximately 2 weeks in a thermostat bath of 20° C. to obtain crystals.
The assay was carried out at an X-ray wavelength of 1 angstrom and an angle of oscillation of 1°/frame. Next, the diffraction intensity data was processed at a resolution of 3.0 angstroms using a diffraction intensity data processing program HKL2000 (manufactured by HKL Research Inc.).
A Fc moiety model registered as PDB accession code: 1DN2 in the Protein Data Bank (PDB, URL: http://www.rcsb.org/pdb/) was utilized as a search model for the molecular replacement method.

[2] = molecular target: T2, bovine serum albumin (bovine, UniProt P02769 25-607); test: size exclusion chromatography with fluorescence detection at 565 nm
T2 construct: also called BSA
Description: The reaction was terminated by the addition of 10 μL of 1 M Tris-HCl (pH=7.0). Then, size exclusion chromatography was performed using Superdex™ 200 10/30GL 1.0 cm in diameter×30 cm (GE Healthcare Japan Corp.); flow rate: 0.3 ml/min; running buffer: PBS pH 7.4. Assay was conducted using a fluorescence detector RF-10A (Shimadzu Corp.) (excitation light: 541 nm, fluorescence: 565 nm).

T2 sequence (P02769 25-607 limits assumed): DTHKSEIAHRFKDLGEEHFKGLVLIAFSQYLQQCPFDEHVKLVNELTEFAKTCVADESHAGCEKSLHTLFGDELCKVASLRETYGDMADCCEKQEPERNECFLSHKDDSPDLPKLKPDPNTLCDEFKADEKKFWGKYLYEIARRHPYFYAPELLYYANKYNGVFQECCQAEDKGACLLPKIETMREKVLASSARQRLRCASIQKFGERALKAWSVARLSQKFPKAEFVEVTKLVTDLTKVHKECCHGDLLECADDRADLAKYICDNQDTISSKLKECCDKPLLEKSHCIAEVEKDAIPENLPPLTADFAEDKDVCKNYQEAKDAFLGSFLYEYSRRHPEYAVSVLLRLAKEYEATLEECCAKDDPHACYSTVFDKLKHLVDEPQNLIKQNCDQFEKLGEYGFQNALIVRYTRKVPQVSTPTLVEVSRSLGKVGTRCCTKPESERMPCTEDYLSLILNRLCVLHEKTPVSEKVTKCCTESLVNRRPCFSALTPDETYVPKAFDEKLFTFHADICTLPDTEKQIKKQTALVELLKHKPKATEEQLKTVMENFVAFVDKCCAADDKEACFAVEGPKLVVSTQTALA

binding result [1]: binds
B1: cyclic homocysteine peptide G(HC)DCAYHRGELVWCT(HC)H-NH2 (peptide)
peptide: G[hCys]DCAYHRGELVWCT[hCys]H-NH2
modifications: disulfide 4-14, 2-16; N-terminus assumed
SMILES: CC(C)C[C@@H]1NC(=O)[C@H](CCC(=O)O)NC(=O)CNC(=O)[C@H](CCCNC(=N)N)NC(=O)[C@H](Cc2c[nH]cn2)NC(=O)[C@H](Cc2ccc(O)cc2)NC(=O)[C@H](C)NC(=O)[C@@H]2CSSC[C@H](NC(=O)[C@H](Cc3c[nH]c4ccccc34)NC(=O)[C@H](C(C)C)NC1=O)C(=O)N[C@@H]([C@@H](C)O)C(=O)N[C@H](C(=O)N[C@@H](Cc1c[nH]cn1)C(N)=O)CCSSCC[C@H](NC(=O)CN)C(=O)N[C@@H](CC(=O)O)C(=O)N2
notes: Peptide put into the crystals with Fc; Residue numbers in the text (Arg8) count on the 17-residue peptide

binding result [2]: no binding
B2: fluorescent (5/6 TAMRA-PEG4) IgG-binding peptide modified with DSS (peptide)
peptide: GPDCAYHXGELVWCTFH
modifications: X at position 8 (lysine in Type I(R8K)) modified with DSS; N-terminal amino-PEG4 modified with 5/6 TAMURA succinimidyl ester (fluorescent dye); C-terminal amide; intramolecular S-S bond
notes: also called DSS-crosslinked peptide

binding result [2]: no binding
B3: fluorescent (5/6 TAMRA-PEG4) IgG-binding peptide modified with DSG (peptide)
peptide: GPDCAYHXGELVWCTFH
modifications: X at position 8 (lysine in Type I(R8K)) modified with DSG; N-terminal amino-PEG4 modified with 5/6 TAMURA succinimidyl ester (fluorescent dye); C-terminal amide; intramolecular S-S bond
notes: also called DSG-cross-linked peptide
